# Where a chain is given by its changes, count along the chain named.
# T1: CHO.K1-rhesusCD103/beta7
# T1 construct: also called CHO.K1-rhCD103/rhBeta7; CHO-K1.rhCD103/rhBeta7
# T1 alpha chain (rhesus integrin Alpha-E, CD103): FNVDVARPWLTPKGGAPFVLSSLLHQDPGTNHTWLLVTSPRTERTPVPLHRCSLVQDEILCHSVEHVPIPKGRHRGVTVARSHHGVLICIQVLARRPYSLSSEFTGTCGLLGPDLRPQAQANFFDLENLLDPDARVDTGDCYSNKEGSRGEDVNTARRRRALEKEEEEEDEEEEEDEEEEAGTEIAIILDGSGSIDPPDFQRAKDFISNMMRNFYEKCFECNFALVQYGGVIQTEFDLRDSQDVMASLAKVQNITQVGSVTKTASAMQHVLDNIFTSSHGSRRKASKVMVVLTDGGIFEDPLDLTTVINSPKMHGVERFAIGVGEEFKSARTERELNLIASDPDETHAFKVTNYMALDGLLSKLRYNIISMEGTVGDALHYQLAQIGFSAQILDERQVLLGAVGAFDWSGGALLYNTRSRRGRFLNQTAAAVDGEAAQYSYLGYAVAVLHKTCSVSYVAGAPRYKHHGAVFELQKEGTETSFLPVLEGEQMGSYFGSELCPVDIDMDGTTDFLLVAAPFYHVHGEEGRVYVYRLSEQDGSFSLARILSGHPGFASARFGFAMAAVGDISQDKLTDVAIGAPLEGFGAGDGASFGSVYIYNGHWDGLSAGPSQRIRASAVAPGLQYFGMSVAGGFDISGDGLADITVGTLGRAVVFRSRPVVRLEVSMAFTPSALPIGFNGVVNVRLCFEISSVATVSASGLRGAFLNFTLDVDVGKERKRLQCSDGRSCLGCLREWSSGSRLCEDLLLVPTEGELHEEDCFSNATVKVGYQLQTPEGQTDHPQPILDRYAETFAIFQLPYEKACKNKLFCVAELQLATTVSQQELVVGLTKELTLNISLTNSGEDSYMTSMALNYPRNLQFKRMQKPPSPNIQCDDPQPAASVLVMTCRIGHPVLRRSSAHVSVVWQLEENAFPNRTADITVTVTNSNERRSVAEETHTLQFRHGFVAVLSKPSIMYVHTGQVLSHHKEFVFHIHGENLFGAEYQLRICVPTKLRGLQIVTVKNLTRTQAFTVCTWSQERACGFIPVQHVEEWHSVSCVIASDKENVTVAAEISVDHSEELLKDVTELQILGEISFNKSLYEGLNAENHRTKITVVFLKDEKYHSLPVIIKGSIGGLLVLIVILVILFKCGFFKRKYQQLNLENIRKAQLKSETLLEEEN
# T1 beta chain (rhesus integrin Beta-7): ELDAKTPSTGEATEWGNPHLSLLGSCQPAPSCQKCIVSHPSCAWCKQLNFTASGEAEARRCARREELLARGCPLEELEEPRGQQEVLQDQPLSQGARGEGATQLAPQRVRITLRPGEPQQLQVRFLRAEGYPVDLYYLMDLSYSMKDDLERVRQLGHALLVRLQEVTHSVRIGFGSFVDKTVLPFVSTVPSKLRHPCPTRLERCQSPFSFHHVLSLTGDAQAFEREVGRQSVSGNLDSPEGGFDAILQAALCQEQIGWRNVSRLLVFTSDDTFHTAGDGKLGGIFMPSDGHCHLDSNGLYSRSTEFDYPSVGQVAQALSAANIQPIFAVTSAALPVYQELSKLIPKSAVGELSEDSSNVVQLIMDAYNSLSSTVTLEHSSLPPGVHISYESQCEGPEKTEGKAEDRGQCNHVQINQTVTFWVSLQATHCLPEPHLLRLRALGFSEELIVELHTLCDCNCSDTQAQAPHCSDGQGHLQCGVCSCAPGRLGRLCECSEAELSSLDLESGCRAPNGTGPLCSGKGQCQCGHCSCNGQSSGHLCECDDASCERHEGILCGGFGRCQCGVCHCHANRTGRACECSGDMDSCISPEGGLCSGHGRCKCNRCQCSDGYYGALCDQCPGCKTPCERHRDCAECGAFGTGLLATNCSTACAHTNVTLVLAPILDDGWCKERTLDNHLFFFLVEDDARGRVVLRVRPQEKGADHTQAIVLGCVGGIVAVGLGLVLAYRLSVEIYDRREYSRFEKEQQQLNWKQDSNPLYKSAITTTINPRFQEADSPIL
# B1: hCD103.06A (antibody, mouse IgG1, V domains shown)
# VH: QVQLQQPGSELVRPGASVKLSCKASGYTFTSYWMHWVKQRHGQGLEWIGNIYPGSGSTNYDEKFKSKGTLTVDTSSSTAYMHLSSLTSEDSAVYYCTRGVYDNPYYFDYWGQGTTLTVSS
# VL: DIQMTQSSSNLSVSLGGRVTITCKASDHINNWLAWYQQKPGNAPRVLISGATSLETGVPSRFSGSGSGKDYTLSITSLQTEDVATYYCQQYWSIPLTFGAGTKLELK
# notes: also called clone 06A; hCD103.06 mAb
# B2: hCD103.07A (antibody, mouse IgG1, V domains shown)
# VH: EVQLQESGPSLVKPSQTLSLTCSVTGDSITSGYWNWIRKFPGNKLEYMGYITYSGSTYYNPSLKSRISITRDTSKNQYYLQLNSVTTEDTATYYCARNYYGSSSMDYWGQGTSVTVSS
# VL: DIVMTQSQKFMSTSVADRVSVTCKASQNVGSDVAWYQQKPGQSPKSLIYSASYRYSGVPDRFTGSGSGTDFTLTISNVQSEDLAEYFCQQYNSYPSTFGGGTKLEIK
# notes: also called clone 07A
# B3: hCD103.01A (antibody, V domains shown)
# VH: B2 VH with A96T, N98H, S103D, S104A
# VL: DIVMTQSHKFMSTSVGDRVSITCKASQDVSIAVAWYQQRPGQSPKLLIYSASYRYTGVPDRFTGSGSGTDFTFTISSVQAEDLAVYYCQQHYSTPWTFGGGTKLEIK
# notes: Also tested labelled with AF647, conjugated with Df and labelled with 89Zr; these are written under this molecule; also called clone 01A; hCD103.01 mAb
# Molecular target: T1, CHO.K1-rhesusCD103/beta7
# Assay: cell ELISA on CHO.K1-rhesusCD103/beta7 cells, abs 450-610
row,Binder,EC50 (read off the curve) [µg/mL]
1,B1,~0.05
2,B2,~0.02
3,B3,~0.05
